Test results as given in patent publication US20220204610A1, “PROTEIN BINDERS FOR IRHOM2” (NEW YORK SOCIETY FOR THE RELIEF OF THE RUPTURED AND …, priority 2019, published 2022).

Key:
human iRhom2 [1] = molecular target: T1, human iRhom2 (Homo sapiens, UniProt Q6PJF5); assay: Peptide binding ELISA, binding specificity (Example 10), iRhom2 peptides; details: antibody 3 μg/ml PBS; peptide coated at 10 μg/ml; normalized to IgM isotype control
T1 construct: the single peptide 3 resembling amino acids 431 to 459 of the extracellular juxtamembrane domain of human iRhom2; made in house; host or cells: chemical synthesis (Fmoc solid phase peptide synthesis), no expression host
T1 sequence (Q6PJF5 with tags, fused parts or gaps): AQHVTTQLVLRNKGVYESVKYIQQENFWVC
Experimental: (§1) Another series of peptide binding ELISA experiments was conducted to address the specificity of the purified antibody 4H8-E3 of the invention, i.e. to question whether this antibody specifically recognizes peptides, in particular peptide 3, resembling the extracellular juxtamembrane region adjacent to the TMD1 of human iRhom2, or whether the antibody 4H8-E3 of the invention also binds to peptides reflecting the homologous region of the closely related family member human iRhom1.
(§2) In brief, on day 1, Nunc black MaxiSorp® 96-well plates (Thermo Fisher Scientific, USA) were coated overnight with 100 μl per well of single biotinylated peptides 1 to 4, Mix A consisting of peptides 1 to 4, single biotinylated peptides 1b to 4b, and Mix D consisting of peptides 1b to 4b at 10 μg/m1 PBS each (thus, the final concentration of each peptide in both mixes was 2.5 μg/m1) at 4° C. On day 2, peptide solutions were removed and MaxiSorp® plates were blocked with 300 μl per well of Pierce protein-free (TBS) blocking buffer (Thermo Fisher Scientific, USA) at room temperature for 1.5 hours. […] Using an infinite M1000 PRO (Tecan Group, Switzerland) microplate reader, the fluorescence of each well was collected at an excitation wavelength of 435 nm and an emission wavelength of 555 nm.

human iRhom2 [2] = assay: as above; details: antibody 3 μg/ml PBS; peptides coated at 10 μg/ml; normalized to IgM isotype control
Experimental: as §1, §2

human iRhom2 [3] = molecular target: T2, human iRhom2 (Homo sapiens, UniProt Q6PJF5); assay: Peptide binding ELISA, target region determination (Example 9); details: antibody 3 μg/ml; peptide coated at 10 μg/ml; normalized to IgM isotype control
T2 construct: made in house; host or cells: chemical synthesis (Fmoc solid phase peptide synthesis), no expression host
T2 sequence (Q6PJF5 431-459): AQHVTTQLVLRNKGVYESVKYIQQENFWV
Experimental: (§3) Next, peptide binding ELISA analyses were performed to verify whether the purified antibody 4H8-E3 of the invention recognizes any of the peptides that were administered to those animals the hybridoma clone 4H8 was derived from, thereby shedding light on the target region being recognized by the antibody 4H8-E3 of the invention.
(§4) In brief, on day 1, Nunc black MaxiSorp® 96-well plates (Thermo Fisher Scientific, USA) were coated overnight with 100 μl per well of single biotinylated peptides 1 to 11 as well as mixes of peptides 1 to 4 (Mix A), 5 to 7 (Mix B), and 8 to 11 (Mix C) at 10 μg/ml TBS each (thus, the final concentration of each peptide in mixes 1 to 4 and 8 to 11 was 2.5 μg/ml versus 3.3 μg/ml in mix 5 to 7) at 4° C. On day 2, peptide solutions were removed and MaxiSorp® plates were blocked with 300 μl per well of Pierce protein-free (TBS) blocking buffer (Thermo Fisher Scientific, USA) at room temperature for 1.5 hours. The blocking buffer was then removed and plates were washed 4 times with 350 μl per well of TBS-T (Carl Roth, Germany) on a 96-head plate washer (Tecan Group, Switzerland). Afterwards, 100 μl per well of TBS as blank control, mouse anti-biotin antibody (clone BN-34, Sigma-Aldrich, USA) at 0.3 μg/ml TBS as coating control, the purified antibody 4H8-E3 of the invention at 3 μg/ml TBS, and mouse IgM antibody (clone MOPC 104E, Sigma-Aldrich, USA) as isotype control to the purified antibody 4H8-E3 of the invention at 3 μg/ml TBS were added to wells pre-coated with single peptides 1 to 11 or respective mixes and incubated at room temperature for 4 hours. Subsequently, the plates were washed 4 times with 350 μl per well of TBS-T (Carl Roth, Germany) on a 96-head plate washer (Tecan Group, Switzerland) again and, protected from direct light, were incubated with 100 μl per well of AP-conjugated goat anti mouse IgG/IgG/IgM F(ab′)2 fragment (Sigma-Aldrich, USA) diluted 1:2,000 in TBS for 1 hour at room temperature. Following another round of 4 washing steps with 350 μl per well of TBS-T (Carl Roth, Germany) on a 96-head plate washer (Tecan Group, Switzerland) and careful removal of all buffer traces after the fourth cycle, 100 μl of AttoPhos substrate solution (Promega, USA) were added for incubation in the dark and at room temperature for 1 hour. Using an infinite M1000 PRO (Tecan Group, Switzerland) microplate reader, the fluorescence of each well was collected at an excitation wavelength of 435 nm and an emission wavelength of 555 nm.

human iRhom2 [4] = assay: as above; details: antibody 3 μg/ml, normalized to IgM isotype control
Experimental: as §3, §4

human iRhom1 = assay: Peptide binding ELISA, binding specificity (Example 10), iRhom1 peptides; details: antibody 3 μg/ml PBS; peptides coated at 10 μg/ml; normalized to IgM isotype control
Experimental: as §1, §2

[5] = peptides coated individually or as mix

B1: 4H8-E3: Mouse IgM monoclonal antibody against the human iRhom2 juxtamembrane domain adjacent to TMD1; HC VD SEQ ID NO 33, LC VD SEQ ID NO 40 (antibody, V domains shown)
VH: EVQLQQSGPELVKPGASVKISCKASGYTFTDYYMNWVKQSHGKSLEWIGDINPNNGGTSYNQKFKGKATLTVDKSSNTAYMEFRSLTSEDSAVYYCARRGYYGVDYWGQGTTLTVSS
VL: NIVMTQSPKSMSMSVGERVTLNCKASENVGTYVSWYQQKPEQSPKLLIFGASNRYTGVPDRFIGSGFATDFTLTISSVQAEDLADYHCGQSYSYPYTFGGGTKLEIK
modifications: IgM constant regions; antibody sequence
- binding to single peptide 3 (amino acids 431 to 459 of human iRhom2) (human iRhom2 [1]): Binding
- binding to Mix A consisting of peptides 1, 2, 3 and 4 (human iRhom2 [2]): Binding
- binding to single peptide 3 (amino acids 431 to 459 of human iRhom2 juxtamembrane domain) (human iRhom2 [3]): strong binding
- binding to Mix A consisting of peptides 1, 2, 3 and 4 (human iRhom2 [4]; biotinylated peptides coated at 10 μg/ml): strong binding
- binding to peptides 5, 6 and 7 (large extracellular loop) (human iRhom2 [4]; [5]): no binding
- binding to peptides 8, 9, 10 and 11 (C-terminal tail of human iRhom2) (human iRhom2 [4]; [5]): no binding
- binding to Mix D or individually coated peptides 1b, 2b, 3b and 4b (homologous sequences of human iRhom1) (human iRhom1): does not bind at all
